The text below walks through data of PMC2120815.

The assay concerns the target cytoplasmic dynein intermediate chain (Xenopus laevis (endogenous in egg extract)). The assay can be described thus: co-IP.

As to “cytoplasmic dynein heavy chain (natural protein)”, the interphase/metaphase ratio of the amount brought down amounted to 1.08.
